Experimental data reported in patent EP4782465A1.

Experiments:
[1] = target: Human insulin receptor subtype B (human) (UniProt P06213); assay: cell-based or functional assay
[2] = target: Insulin receptor of C2C12 mouse myoblasts (mouse) (UniProt P15208); assay: cell-based or functional assay
Sequence of Insulin receptor of C2C12 mouse myoblasts (mouse) (P15208 28-1372): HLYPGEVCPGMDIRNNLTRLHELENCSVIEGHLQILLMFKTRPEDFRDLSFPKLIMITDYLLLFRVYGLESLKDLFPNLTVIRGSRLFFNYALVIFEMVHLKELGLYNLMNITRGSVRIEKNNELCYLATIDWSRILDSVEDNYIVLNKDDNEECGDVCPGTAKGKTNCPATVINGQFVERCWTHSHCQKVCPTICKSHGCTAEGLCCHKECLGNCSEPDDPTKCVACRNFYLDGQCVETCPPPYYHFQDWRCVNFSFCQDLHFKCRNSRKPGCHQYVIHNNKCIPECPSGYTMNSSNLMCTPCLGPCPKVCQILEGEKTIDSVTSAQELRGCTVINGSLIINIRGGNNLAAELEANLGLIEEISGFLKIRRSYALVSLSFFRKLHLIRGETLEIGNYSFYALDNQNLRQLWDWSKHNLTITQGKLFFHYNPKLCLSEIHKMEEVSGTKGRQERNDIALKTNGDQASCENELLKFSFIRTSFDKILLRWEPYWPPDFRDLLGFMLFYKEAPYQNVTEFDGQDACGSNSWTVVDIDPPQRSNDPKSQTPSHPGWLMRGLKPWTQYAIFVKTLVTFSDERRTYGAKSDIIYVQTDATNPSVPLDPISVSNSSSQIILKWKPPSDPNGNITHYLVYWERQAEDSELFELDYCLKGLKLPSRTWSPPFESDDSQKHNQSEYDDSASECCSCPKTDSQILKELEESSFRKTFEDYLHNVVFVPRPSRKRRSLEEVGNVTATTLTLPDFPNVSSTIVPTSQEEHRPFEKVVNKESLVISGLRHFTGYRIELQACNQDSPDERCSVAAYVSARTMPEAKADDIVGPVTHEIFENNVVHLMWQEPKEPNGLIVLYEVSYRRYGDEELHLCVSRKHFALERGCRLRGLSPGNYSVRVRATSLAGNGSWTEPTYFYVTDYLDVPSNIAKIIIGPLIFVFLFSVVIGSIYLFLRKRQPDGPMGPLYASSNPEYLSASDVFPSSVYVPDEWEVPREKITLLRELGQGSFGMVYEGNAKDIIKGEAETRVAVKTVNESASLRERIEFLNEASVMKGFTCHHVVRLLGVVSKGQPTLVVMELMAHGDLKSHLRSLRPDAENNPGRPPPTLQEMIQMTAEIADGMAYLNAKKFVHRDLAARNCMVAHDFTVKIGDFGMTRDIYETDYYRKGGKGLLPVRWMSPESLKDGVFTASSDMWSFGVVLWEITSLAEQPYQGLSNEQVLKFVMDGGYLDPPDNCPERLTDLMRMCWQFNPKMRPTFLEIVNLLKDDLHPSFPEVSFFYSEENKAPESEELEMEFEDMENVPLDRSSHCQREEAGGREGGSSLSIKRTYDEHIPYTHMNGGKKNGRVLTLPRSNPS

## LY3209590 (Fc fusion)
[1]
  Human insulin receptor subtype B activity (EC50): 116 nM
[2]
  AKT phosphorylation activity (EC50): 194 nM
